# Experimental data from the supplement of paper PMC9732359.
# ± gives the uncertainty stated by the source.
# Experiment: protein stability index of a GFP-peptide fusion (yeast GPS) (PSI 1-4); higher = more stable; sorted into four equal gates, so the index is relative within each strain
# In short: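 The protein stability index of a peptide was calculated by multiplying its read frequency in each gate by that gate's number and adding the products. The peptides were tiled 17-residue stretches of yeast proteins, fused downstream of GFP on a Cherry-expressing plasmid and carried in yeast as a pooled library. Mid-log cultures in leucine-free medium were sorted into four equal gates by GFP/Cherry ratio, and each gate's plasmids were PCR-amplified and Illumina-sequenced.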
Sequence,protein stability index (doa10∆),protein stability index (pdr5∆),protein stability index (san1∆),protein stability index (ubr1∆)
KKLSINSAARNIQHLLY [PRE7],2.68 ± 0.051,2.88 ± 0.062,2.81 ± 0.044,2.8 ± 0.056
KKMGVPYAIIKGKARLG [RPL8B],2.15 ± 0.15,2.12 ± 0.15,2.11 ± 0.17,3.41 ± 0.28
KKMVYVLDSMTKEELES [SRP54],3.02 ± 0.086,2.85 ± 0.085,2.92 ± 0.091,3.04 ± 0.069
KKNIDYQNRSTRSQFCL [RRI1],3.01 ± 0.039,2.94 ± 0.04,2.88 ± 0.034,3.079 ± 0.026
KKNRDKKIFGTGKRLAK [RPS24A],3.4 ± 0.05,3.23 ± 0.039,3.291 ± 0.028,3.26 ± 0.033
KKPLSMALNKVLITDHI [CDC53],1.93 ± 0.04,2.24 ± 0.038,2.18 ± 0.05,2.12 ± 0.028
KKRNPSKQNGSKFHFSW [PRP28],2.78 ± 0.054,2.62 ± 0.05,2.52 ± 0.052,2.49 ± 0.038
KKRRGSRIYKTIKVAGT [SNU114],1.6 ± 0.042,1.78 ± 0.045,1.61 ± 0.069,1.8 ± 0.043
KKSGSLTFNSKNIQSKD [FAS2],3.2 ± 0.12,3.29 ± 0.13,3.26 ± 0.13,3.27 ± 0.075
KKVNGTSYKKWSFDLPE [PRP8],2.2 ± 0.07,2.36 ± 0.084,2.25 ± 0.1,3.35 ± 0.12
KKVVLRLECVKCKTRAQ [RPL42A],2.3 ± 0.12,2.03 ± 0.095,2.4 ± 0.16,2.09 ± 0.047
KLDENNAQLSCITKQDG [PUP2],2.79 ± 0.12,3.13 ± 0.087,3.11 ± 0.098,3.06 ± 0.088
KLDLFKYFTELSHYIRQ [MED1],1.52 ± 0.084,1.44 ± 0.14,1.24 ± 0.17,1.33 ± 0.079
KLDTEVKNTNANPVVAT [SWP82],1.94 ± 0.069,2.38 ± 0.082,2.54 ± 0.08,1.86 ± 0.05
KLHMGTEDVRLAPELNQ [RPL31B],2.81 ± 0.061,3 ± 0.067,2.86 ± 0.049,3.05 ± 0.04
KLINIKKFDISNDNLDL [MED1],2.83 ± 0.2,3.01 ± 0.15,2.48 ± 0.15,2.83 ± 0.096
KLKNENTDLKDIIQGNP [PCI8],2.82 ± 0.051,3.21 ± 0.084,2.75 ± 0.14,3.25 ± 0.089
KLLDNIQEYQLCDNFNH [COR1],2.35 ± 0.074,2.31 ± 0.091,2.44 ± 0.086,2.2 ± 0.064
KLLKEKVKLFHGILDDL [MED2],3.1 ± 0.12,2.93 ± 0.13,3.09 ± 0.06,2.97 ± 0.14
KLLKGATLYIPKALRFD [FAS2],,2.79 ± 0.22,2.88 ± 0.13,

Sequence,protein stability index (doa10∆),protein stability index (pdr5∆),protein stability index (san1∆),protein stability index (ubr1∆)
KLLLLRINSTDEDLHEF [SRB8],2.61 ± 0.2,3.06 ± 0.16,2.94 ± 0.18,3.24 ± 0.27
KLNELDELILEAKERYT [NNF1],2.98 ± 0.11,3.17 ± 0.096,3.23 ± 0.058,2.82 ± 0.16
KLNTFNLQTFTHEQWSN [SRP72],3 ± 0.12,2.83 ± 0.078,2.36 ± 0.076,2.78 ± 0.062
KLNVDQFISSRQFEVKQ [POP1],2.99 ± 0.053,3.08 ± 0.055,3.01 ± 0.041,2.97 ± 0.059
KLQLSFVLQMVGKTAQS [SRP72],,,1.42 ± 0.16,
KLSDNISICMILCGIQE [YDL116W/NUP84],2.23 ± 0.074,1.86 ± 0.083,2.62 ± 0.12,2.06 ± 0.11
KLSDSKTSNIESVPIYS [BRR2],2.5 ± 0.054,2.64 ± 0.062,2.33 ± 0.042,2.6 ± 0.054
KLSKEERAARVAAKIAA [RPL5],2.54 ± 0.13,2.93 ± 0.079,2.49 ± 0.2,2.52 ± 0.078
KLSKILRTEYGWDSLAS [SNU114],3.17 ± 0.14,3.17 ± 0.2,3.1 ± 0.21,3.3 ± 0.17
KLVRESELLGGTFKSTL [QCR2],2.53 ± 0.12,2.82 ± 0.1,2.35 ± 0.093,3.18 ± 0.063
KLYFQLFLNTGCLSVLY [SRP68],1.47 ± 0.038,1.19 ± 0.041,1.19 ± 0.1,1.21 ± 0.043
KMIILDKLLKRLKEKGS [ISW2],1.58 ± 0.049,1.32 ± 0.061,1.35 ± 0.12,1.44 ± 0.055
KMVIAELLPHYPFVTND [YJR042W/NUP85],2.83 ± 0.09,2.75 ± 0.092,2.87 ± 0.052,2.99 ± 0.073
KMVKAWNLNQFQIEADF [ASC1],2.58 ± 0.046,2.67 ± 0.053,2.58 ± 0.067,2.55 ± 0.04
KNDSAEVRQETQPKAEA [NUT1],3.35 ± 0.15,3.26 ± 0.11,3.36 ± 0.055,3.38 ± 0.083
KNDSLEKTINDLQRTQT [YIL149C/MLP2],2.97 ± 0.074,3.02 ± 0.063,2.82 ± 0.059,2.89 ± 0.046
KNESATINEMMKHLGRS [FAS2],2.6 ± 0.082,2.87 ± 0.087,2.65 ± 0.062,2.81 ± 0.095
KNGLGLNFSTTAPANTT [MED2],2.16 ± 0.07,2.38 ± 0.047,2.15 ± 0.072,2.06 ± 0.042
KNKPELYQIDYLGTKVE [PRE1],2.82 ± 0.091,2.95 ± 0.1,3.09 ± 0.064,3.16 ± 0.089
KNLERLRGEYNDLQSET [SMC4],3.33 ± 0.2,3.4 ± 0.083,3.25 ± 0.067,2.9 ± 0.06
